Where a chain is given by its changes, count along the chain named. In names and notes the source's numbering stands. Several values for one entry are separate records, joined by “and”; a condition that tells them apart may be missing. Equal values may be shown once.
Columns and labels:
[1] = target: T1, human alpha-synuclein aggregates (fibrils) (human, UniProt P37840 1-140); experiment: Octet (BLI), fibrils; table of results
Procedure: The target concentrations were 20 μg/ml for the monomer and 0.4 μg/ml for the fibril. The kinetics concentration was diluted sequentially two times from 50 nM for monomers and from 100 nM for fibrils, to give 7 points in total, respectively. Association/dissociation time was 5 min/20 min for monomer and 5 min/25 min for fibril. Biosensor was ARG2 and fitting was performed using 1:1 fitting model.

[2] = target: T1, human alpha-synuclein aggregates …; experiment: SPR (BIAcore), fibrils; table of results
Procedure: (§1) The running buffer, analyte dilution, and the sample dilution buffer were HBS-EP. […] For the capture, the monomer was for RU of 800 (theoretical), and a fibril was for RU of 100 (theoretical). The capture phase was performed at contact time of 60 seconds, a flow rate of 30 μl/min, and a stabilization period of 180 seconds. The association phase was performed at the association time of 120 seconds and the flow rate was 30 μl/min. The dissociation phase was performed at the dissociation time of 360 seconds and the flow rate of 30 l/min. The regeneration phase was performed twice time at the regeneration time of 240 seconds (primary) and 60 seconds (secondary) and a flow rate of 30 μl/min. The fitting was carried out suing 1:1 binding model, and the evaluation software was BIACore T200 Evaluation software (GE healthcare).

[3] = target: T1, human alpha-synuclein aggregates …; experiment: sandwich ELISA, antibody coated at 1 ug/ml, alpha-synuclein fibril aggregates titrated
Procedure: ELISA analysis was performed to quantitatively analyze the binding affinity of the antibody of the present invention to the antigen. […] After washing with PBS, streptavidin conjugated with HRP and secondary antibody conjugate with biotin was treated and then reacted with TMB as a substrate.

Tau protein aggregates = target: T2, Tau protein aggregates (UniProt P10636-8 1-441, limits assumed); experiment: dot blot
T2 construct: aggregates prepared by Prof; Seung-jae Lee; also called tau-derived aggregates

human beta-synuclein = target: T3, human beta-synuclein (human, UniProt Q16143 1-134, limits assumed); experiment: ELISA, human beta-synuclein coated at 100 ng/ml
T3 construct: bought
Source text: (§2) For the positive control, RP-bound goat anti-rabbit was used as a detection antibody.

human gamma-synuclein = target: T4, human gamma-synuclein (human, UniProt O76070 1-127, limits assumed); experiment: ELISA, human gamma-synuclein coated at 100 ng/ml
T4 construct: bought
Source text: as §2

Aβ42 (Monomer) = target: T5, Aβ42 (Monomer) (human, UniProt P05067); experiment: dot blot, monomer and fibril of each protein spotted in rising amounts, antibody as probe
T5 construct: recombinant, monomer (not aggregated); m20 is the aggregated form; also called amyloid beta1-42 monomer
Procedure: (§3) The specific binding ability of the antibodies to the alpha-synuclein aggregate was analyzed by reacting with a blot.

[4] = target: T6, amyloid beta1-42 aggregates (UniProt P05067 672-713); experiment: as above
T6 construct: domain: amyloid beta1-42; aggregates prepared by Prof; Seung-jae Lee; also called amyloid beta1-42-derived aggregates
Procedure: as §3

[5] = target: T1, human alpha-synuclein aggregates …; experiment: SPR (BIAcore), antibody captured on Protein A chip, alpha-Syn fibril as analyte, 1:1 binding fit, 25 C
[6] = target: human alpha-synuclein monomer (human, UniProt P37840 1-140); experiment: SPR (BIAcore), antibody captured on Protein A chip, alpha-Syn monomer as analyte, 1:1 binding fit to a flat sensorgram, 25 C
[7] = target: T1, human alpha-synuclein aggregates …; experiment: SPR (BIAcore), antibody captured on Protein A chip, alpha-synuclein fibril (sample aSyn180330) as analyte, 1:1 binding fit, 25 C
Procedure: as §1

[8] = target: T1, human alpha-synuclein aggregates …; experiment: sandwich ELISA, antibody coated in a dilution series, synuclein fibril aggregates at 2000 ng/ml; C of the 4-P fit, which paragraph 260 calls EC50
Procedure: Specifically, each antibody was diluted at 1/10 ratio of concentrations 0.04 to 400 nM and was coated on a 96-well plate, and then each well was treated with synuclein fibril aggregates were treated at 2000 ng/ml. After washing with 1×PBS, streptavidin conjugated with HRP and secondary antibody conjugate with biotin was treated and then reacted with TMB as a substrate. The absorbance was measured.

[9] = target: T1, human alpha-synuclein aggregates …; experiment: BIAcore as in Example 4-3, α-syn aggregates
Procedure: as §1

human IGF1R on cells = target: T7, human IGF1R on cells (human, UniProt P08069 31-1367); experiment: FACS on MCF-7 cells, 10 ug/mL (2nd Ab only: 2.86)
T7 construct: also called endogenous IGF1R on the cell surface (MCF-7, JIMT-1, BT474, SKBR3); IGF1R library on OVCAR3 cells
Procedure: After washing with PBS buffer containing 1% BSA, the secondary antibody bound with FITC to detect human antibodies was treated for 1 hour.

[10] = target: T8, human IGF1R extracellular domain, His-tagged (human, UniProt P08069 31-932); experiment: ELISA, hIGF1R coated, minibody titrated 0.000256-20 nM, Abs. at 450 nm
T8 construct: Bought (R&D Systems 391-GR or Sino Biological 10164-H08H); also called recombinant IGF1R; ECD of IGF1R
Procedure: Human IGF1R was diluted with 1 ug/ml in PBS buffer, added at an amount of 100 ul per well in 96-well ELISA plate (Nunc-Immuno Plates, NUNC, Rochester, NY), coated by reacting at 4° C. for 16 hours, and then the supernatant was removed. PBS buffer containing 3% BSA (bovine serum albumin) was added to 200 ul per well and reacted for 2 hours to block non-specific binding.
After treatment, it was wash 4 times with PBS buffer containing 0.05% Tween20, and was reacted at room temperature for an hour by adding 100 ul of the anti-human HRP recognizing human Fe of the minibody diluted in blocking buffer at 1:5000 per each well. After washing 4 times with 300 ul of PBS-T (Tween20 0.05%), the color development was performed using TMB (Tetramethylbenzidine, Sigma, T0440).

[11] = target: T8, human IGF1R extracellular domain, …; experiment: ELISA on IGF1R protein, first experiment
[12] = target: T8, human IGF1R extracellular domain, …; experiment: ELISA on IGF1R protein, third experiment
[13] = target: T8, human IGF1R extracellular domain, …; experiment: ELISA on IGF1R protein, second experiment
[14] = target: T8, human IGF1R extracellular domain, …; experiment: SPR (Biacore T200), His-tagged human IGF1R ECD captured by anti-His antibody on CM4 chip, bivalent model; F06 IgG
Procedure: The anti-his antibody against the His tag bound to the human IGF1R ECD as an antigen was diluted to 20 μg/ml in acetate pH4.0 buffer, and then immobilized in the reference/analytic channel of the CM4 chip to 10,000 RU as a target RU according to the amine coupling method. During capture, PBS was used as a running buffer, and the flow rate was maintained at 30 μL/min. During association/dissociation, the flow rate was 40 μL/min, and PBS was used as the running buffer. The association/dissociation was 5 minutes and 20 minutes, respectively.

T2 sequence (P10636 other isoform, or with tags, fused parts or gaps limits assumed): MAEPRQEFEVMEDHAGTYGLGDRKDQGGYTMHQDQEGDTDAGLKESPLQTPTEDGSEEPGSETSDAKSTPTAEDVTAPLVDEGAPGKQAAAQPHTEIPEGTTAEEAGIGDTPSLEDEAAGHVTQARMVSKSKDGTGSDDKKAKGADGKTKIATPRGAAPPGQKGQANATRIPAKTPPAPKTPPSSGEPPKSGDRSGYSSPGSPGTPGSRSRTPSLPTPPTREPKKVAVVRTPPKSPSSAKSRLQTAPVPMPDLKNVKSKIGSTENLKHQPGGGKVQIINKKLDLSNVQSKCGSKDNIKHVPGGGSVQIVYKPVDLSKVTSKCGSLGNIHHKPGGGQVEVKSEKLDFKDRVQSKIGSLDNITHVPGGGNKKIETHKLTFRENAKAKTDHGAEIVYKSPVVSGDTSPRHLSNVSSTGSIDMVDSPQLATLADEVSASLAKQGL
T3 sequence (Q16143 whole entry): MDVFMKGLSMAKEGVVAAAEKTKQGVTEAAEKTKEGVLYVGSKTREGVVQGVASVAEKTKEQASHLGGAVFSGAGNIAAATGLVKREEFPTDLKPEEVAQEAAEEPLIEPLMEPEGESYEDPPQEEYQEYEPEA
T4 sequence (O76070 whole entry): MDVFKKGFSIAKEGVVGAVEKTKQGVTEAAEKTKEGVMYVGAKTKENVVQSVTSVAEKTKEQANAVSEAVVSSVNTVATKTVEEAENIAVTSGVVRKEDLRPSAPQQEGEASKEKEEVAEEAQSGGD

B1: 11F11 (mouse monoclonal anti-alpha-synuclein antibody) (antibody, mouse IgG2b, V domains shown)
VH: EVQLQESGGGLVQPGGSLRLSCATSGFTFSDFYMEWVRQPPGKRLEWIAASRNKANDYTTEYSASVKGRFIVSRDTSQSILYLQMNALRAEDTAIYYCARDAHGKPFAYWGQGTLVTVSA
VL: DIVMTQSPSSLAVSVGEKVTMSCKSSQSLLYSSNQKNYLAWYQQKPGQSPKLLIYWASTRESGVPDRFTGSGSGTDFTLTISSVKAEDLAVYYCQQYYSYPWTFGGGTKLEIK
With B1 as the binder, how does the Kd [1] read?
The Kd was 0.16 nM.

And the Kd [2]?
Its Kd is 2.87 nM.

And the EC50 [3]?
Its EC50 is 0.327 µg/mL and 2.18 nM.

B2: chimeric 3A9 antibody (antibody, V domains shown)
VH: EVQLQESGGGLVKPGGSLKLSCAASGFTFSSYAMSWVRQTPEKRLEWVATISNGGGYTYYPDSVKGRFTISRDNAKNTLYLQMSSLRSEDTAMYYCARHITTVRPTKYFDYWGQGTTLTVSS
VL: DIVMTQSPKFMSTSVGDRVSITCKASQNVGTTVAWYQQKPGQSPKLLIYSASNRYTGVPDRFTGSGSGTDFTLTISNMQSEDLADYFCQQYSNYPLTFGAGTKLELR
notes: also called Ch 3A9; ch3A9
Does B2 bind (Tau protein aggregates)?
Result: no binding

Does B2 bind (human beta-synuclein)?
Result: no binding

Does B2 bind (human gamma-synuclein)?
Result: no binding

Does B2 bind (Aβ42 (Monomer))?
Result: no binding

Does B2 bind [4]?
Result: no binding

What about the koff [5] of the same binder?
The koff was 7.42e-05 s⁻¹.

And the kon [5]?
Its kon is 631000 M⁻¹ s⁻¹.

What about the koff [6] of the same binder?
Its koff is 0.00186 s⁻¹.

B3: chimeric 9B11 antibody (antibody, V domains shown)
VH: EVQLQESGGGLVQPKGSLKLSCAASGFTFNTYAMNWVRQAPGKGLEWVARIRSKSNNYATYYADSVKDRFTISRDDSQSMLYLQMNNLKTEDTAMYYCVRQDFDYWGQGTTLTVSS
VL: DIVMTQSPLSLPVSLGDQASISCRSSQSLVHSNGNTYLHWYLQKPGQSPKLLIYKVSNRFSGVPDRFSGSGSGTDFTLKISRVEAEDLGVYFCSQSTHVPLTFGAGTKLEQK
notes: also called ch9B11; 9B11 (chimeric)
Does B3 bind (Tau protein aggregates)?
Result: no binding

Does B3 bind (human beta-synuclein)?
Result: no binding

Does B3 bind (human gamma-synuclein)?
Result: no binding

Does B3 bind (Aβ42 (Monomer))?
Result: no binding

Does B3 bind [4]?
Result: no binding

And the koff [5]?
Its koff is 4.39e-05 s⁻¹.

What about the kon [5] of the same binder?
Its kon is 629000 M⁻¹ s⁻¹.

What about the koff [6] of the same binder?
The koff was 0.000571 s⁻¹.

And the kon [6]?
The kon was 2210 M⁻¹ s⁻¹.

B4: 3A9 (mouse monoclonal anti-alpha-synuclein antibody) (antibody, mouse IgG2b, V domains shown)
VH: B2 VH
VL: B2 VL
With B4 as the binder, how does the Kd [1] read?
Its Kd is 0.13 nM.

What about the Kd [2] of the same binder?
The Kd was 1.32 nM.

And the EC50 [3]?
Its EC50 is 0.319 µg/mL and 2.13 nM.

B5: 9B11 (mouse monoclonal anti-alpha-synuclein antibody) (antibody, V domains shown)
VH: B3 VH
VL: B3 VL
Which results are given for B5?
Kd [1]: 0.018 nM; Kd [2]: 0.904 nM; EC50 [3]: 0.185 µg/mL and 1.23 nM

B6: hu11F11(ver.1) (antibody, human IgG1, kappa, V domains shown)
VH: B1 VH with Q5V, I71T, V72I, T76D, Q78K, I80S, A87S, L115T, A120S
VL: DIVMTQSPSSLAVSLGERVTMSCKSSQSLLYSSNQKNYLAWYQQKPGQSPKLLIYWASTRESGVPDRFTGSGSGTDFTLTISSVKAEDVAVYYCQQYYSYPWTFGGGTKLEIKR
notes: humanized IgG1; also called Hu11F11-VH-v1 + Hu11F11-VLv3 4c
Which results are given for B6?
koff [7]: 5.36e-05 s⁻¹; kon [7]: 845000 M⁻¹ s⁻¹; EC50 [8]: 11.5 nM

B7: hu11F11(ver.2) (antibody, human IgG1, kappa, V domains shown)
VH: B1 VH with Q5V, I71T, T76D, Q78K, I80S, A87S, L115T, A120S
VL: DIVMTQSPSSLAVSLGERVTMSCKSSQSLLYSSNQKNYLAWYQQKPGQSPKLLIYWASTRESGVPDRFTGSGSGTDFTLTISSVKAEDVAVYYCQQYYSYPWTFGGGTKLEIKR
notes: humanized IgG1; also called Hu11F11-VH-v2 + Hu11F11-VLv3 4c
With B7 as the binder, how does the Kd [9] read?
The Kd was 0.0596 nM.

And the “GeoMean, Internalization at 37° C.” value (human IGF1R on cells)?
Its value is 3.18.

What about the koff [7] of the same binder?
Its koff is 0.000173 s⁻¹.

What about the kon [7] of the same binder?
The kon was 1.19e+06 M⁻¹ s⁻¹.

What about the EC50 [8] of the same binder?
The EC50 was 15.1 nM.

B8: hu11F11(ver.3) (antibody, human IgG1, kappa, V domains shown)
VH: B1 VH with Q5V, I71T, V72I, Q78K, I80S, A87S, L115T, A120S
VL: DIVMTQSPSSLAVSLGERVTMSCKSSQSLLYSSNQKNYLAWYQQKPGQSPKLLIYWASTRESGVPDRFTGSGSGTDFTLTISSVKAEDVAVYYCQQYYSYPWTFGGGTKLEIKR
notes: humanized IgG1; also called Hu11F11-VH-v3 + Hu11F11-VLv3 4c
Which Kd [9] does the source give for B8 here?
The Kd was 0.0316 nM.

And the kon [7]?
The kon was 1.07e+06 M⁻¹ s⁻¹.

What about the EC50 [8] of the same binder?
The EC50 was 13.4 nM.

B9: hu11F11(ver.4) (antibody, human IgG1, kappa, V domains shown)
VH: B1 VH with Q5V, I71T, Q78K, I80S, A87S, L115T, A120S
VL: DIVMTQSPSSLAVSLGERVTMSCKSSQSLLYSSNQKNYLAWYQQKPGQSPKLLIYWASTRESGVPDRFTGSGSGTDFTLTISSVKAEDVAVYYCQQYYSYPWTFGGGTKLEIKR
notes: humanized IgG1; also called Hu11F11-VH-v4 + Hu11F11-VLv3 4c
Which results are given for B9?
Kd [9]: 0.0204 nM; koff [7]: 0.000291 s⁻¹; kon [7]: 1.07e+06 M⁻¹ s⁻¹; EC50 [8]: 12.9 nM

B10: 996 minibody (Fc fusion, not shown: a dimerising Fc or GST)
chain: QSVLTQPPSASGTPGQRVTISCTGSSSNIGSNAVNWYQQLPGTAPKLLIYSNSHRPSGVPDRFSGSKSGTSASLAISGLRSEDEADYYCATWDYSLSGYVFGCGTKLTVLGGGGSGGGGSGGGGSGGGGSEVQLLESGGGLVQTGGSLRLSCAASGFTFSSYDMSWVRQAPGKCLEWVSGIYHDGSSTYYADSVQGRFTISRDNSKNTLYLQMNSLRAEDTAVYYCARVSGTLSEPYAFFFNAMDVWGQGTLVTVSS
For B10, which “EC50 (read off the curve)” value [10] is on record?
Its value is roughly 0.3 nM.

B11: 1564 clone (anti-IGF1R antibody, format not stated) (antibody, V domains shown)
VH: EVQLLESGGGLVQPGGSLRLSCAASGFTFSSYDMSWVRQAPGKGLEWVSAISYDNGNTYYADSVKGRFTISRDNSKNTLYLQMNSLRAEDTAVYYCAKGVLTTLMNWFDYWGQGTLVTVSS
VL: QSVLTQPPSASGTPGQRVTISCTGSSSNIGSNDVSWYQQLPGTAPKLLIYANSNRPSGVPDRFSGSKSGTSASLAISGLRSEDEADYYCGAWDDSLNGYVFGGGTKLTVL
For B11, which EC50 [11] is on record?
The EC50 was 2.15 nM.

And the Saturation value [11]?
Its Saturation value is 1.1.

What about the EC50 [12] of the same binder?
The EC50 was 6.87 nM.

And the EC50 [13]?
Its EC50 is 2.66 nM.

And the Saturation value [13]?
Its Saturation value is 0.977.

B12: 1564-VH(N54D) (antibody, V domains shown)
VH: B11 VH with N55D
VL: B11 VL
With B12 as the binder, how does the EC50 [13] read?
Its EC50 is 2.89 nM.

What about the Saturation value [13] of the same binder?
Its Saturation value is 0.933.

B13: 1564-VH(N54Q) (antibody, V domains shown)
VH: B11 VH with N55Q
VL: B11 VL
How did the EC50 [13] turn out when B13 was run?
Its EC50 is 2.2 nM.

And the Saturation value [13]?
Its Saturation value is 0.885.

B14: 1564-VL(N51D) (antibody, V domains shown)
VH: B11 VH
VL: B11 VL with N52D, P60S
For B14, which EC50 [12] is on record?
The EC50 was 7.35 nM.

B15: 1564-VL(N95aD) (antibody, V domains shown)
VH: B11 VH
VL: B11 VL with P60S, N97D
With B15 as the binder, how does the EC50 [13] read?
Its EC50 is 2.07 nM.

And the Saturation value [13]?
Its Saturation value is 0.896.

B16: 1564-VL(N95aH) (antibody, V domains shown)
VH: B11 VH
VL: B11 VL with P60S, N97H
What does the source list for B16?
EC50 [11]: 2.63 nM; Saturation value [11]: 1.08

B17: 1564-VL(N95aK) (antibody, V domains shown)
VH: B11 VH
VL: B11 VL with P60S, N97K
What does the source list for B17?
EC50 [11]: 2.07 nM; Saturation value [11]: 1.18

B18: F06 IgG antibody (antibody, V domains shown)
VH: B11 VH
VL: B11 VL with A91T, D93A, D94G
Which Kd [14] does the source give for B18 here?
The Kd was 478 nM.

Reference: patent publication US20240101687A1 (ABL BIO, published 2024)
